These results are taken from publication PMC3607736, “HAD hydrolase function unveiled by substrate screening: enzymatic characterization of Arabidopsis thaliana subclass I phosphosugar phosphatase AtSgpp” (Planta, 2012).

Substrate in the series: O=P(O)(O)OCC(O)CO
Put plainly: inorganic phosphate release (Ames), non-linear regression. Format: biochemical, Arabidopsis thaliana. To be noted: 20 mM Tris-HCl pH 7.0, 5 mM MgCl2, 32 °C, apparent Km, MBP fusion. From the text:
inorganic phosphate release (Ames), non-linear regression on AtSgpp (MBP-AtSgpp, At2g38740)

B1: AtSgpp (MBP-AtSgpp, At2g38740) (Arabidopsis thaliana) (protein)
chain: MNGFSDLNPSESKPSLSQLAPLEAILFDVDGTLCDSDPIHLIAFQELLQEIGFNNGVPIDEKFFVENIAGKHNSEIALLLFPDDVSRGLKFCDEKEALYRKIVAEKIKPLDGLIKLTKWIEDRGLKRAAVTNAPKENAELMISKLGLTDFFQAVILGSECEFPKPHPGPYLKALEVLNVSKEHTLVFEDSISGIKAGVAAGMPVIGLTTGNPASLLMQAKPAFLIENYADPKLWAVLEELDNKS
notes: N-terminal MBP fusion (pMAL-c2X, Ile-Ser-Glu-Phe linker before Met1); E. coli TB1, amylose resin
On to B1, for which the Km entry is “(7.3 ± 0.2) × 10^−3 M”; the Vmax (in general, the rate approached at saturating substrate) is 0.498 µmol/min; the kcat (usually the number of substrate molecules converted per active site and unit of time at saturation) stood at 23 ± 3 s⁻¹; the catalytic efficiency (kcat/Km) (in general, the turnover number divided by the Michaelis constant) was found to be 3100 M⁻¹ s⁻¹.
